# Target: syntaxin-1A (endogenous, cultured mouse neurons) (mouse (endogenous in cultured …, UniProt O35526 1-288))
# Assay: co-IP
# Chain of syntaxin-1A (endogenous, cultured mouse neurons) (mouse (O35526 whole entry): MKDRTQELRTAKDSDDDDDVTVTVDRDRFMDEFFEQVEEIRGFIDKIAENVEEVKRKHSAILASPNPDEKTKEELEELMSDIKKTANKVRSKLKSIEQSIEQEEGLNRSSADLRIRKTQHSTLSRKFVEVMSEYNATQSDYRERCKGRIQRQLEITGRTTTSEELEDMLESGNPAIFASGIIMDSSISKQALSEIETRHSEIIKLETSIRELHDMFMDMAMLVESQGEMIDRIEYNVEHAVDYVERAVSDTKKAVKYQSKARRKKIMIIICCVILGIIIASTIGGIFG
row,Binder,reduction of co-immunoprecipitated Syt1 against Syt1 WT [%]
1,"Syt1 E295A, Y338W (natural protein, rat, UniProt P21707 1-421, looked up) MVSASHPEALAAPVTTVATLVPHNATEPASPGEGKEDAFSKLKQKFMNELHKIPLPPWALIAIAIVAVLLVVTCCFCVCKKCLFKKKNKKKGKEKGGKNAINMKDVKDLGKTMKDQALKDDDAETGLTDGEEKEEPKEEEKLGKLQYSLDYDFQNNQLLVGIIQAAELPALDMGGTSDPYVKVFLLPDKKKKFETKVHRKTLNPVFNEQFTFKVPYSELGGKTLVMAVYDFDRFSKHDIIGEFKVPMNTVDFGHVTEEWRDLQSAEKEEQEKLGDICFSLRYVPTAGKLTVVILAAKNLKKMDVGGLSDPYVKIHLMQNGKRLKKKKTTIKKNTLNPWYNESFSFEVPFEQIQKVQVVVTVLDYDKIGKNDAIGKVFVGYNSTGAELRHWSDMLANPRRPIAQWHTLQVEEEVDAMLAVKK",~50
2,"Syt1 R281A, R398A, R399A (natural protein, rat, UniProt P21707 1-421, looked up) MVSASHPEALAAPVTTVATLVPHNATEPASPGEGKEDAFSKLKQKFMNELHKIPLPPWALIAIAIVAVLLVVTCCFCVCKKCLFKKKNKKKGKEKGGKNAINMKDVKDLGKTMKDQALKDDDAETGLTDGEEKEEPKEEEKLGKLQYSLDYDFQNNQLLVGIIQAAELPALDMGGTSDPYVKVFLLPDKKKKFETKVHRKTLNPVFNEQFTFKVPYSELGGKTLVMAVYDFDRFSKHDIIGEFKVPMNTVDFGHVTEEWRDLQSAEKEEQEKLGDICFSLAYVPTAGKLTVVILEAKNLKKMDVGGLSDPYVKIHLMQNGKRLKKKKTTIKKNTLNPYYNESFSFEVPFEQIQKVQVVVTVLDYDKIGKNDAIGKVFVGYNSTGAELRHWSDMLANPAAPIAQWHTLQVEEEVDAMLAVKK",~50
3,"Syt1 R398Q, R399Q (natural protein, rat, UniProt P21707 1-421, looked up) MVSASHPEALAAPVTTVATLVPHNATEPASPGEGKEDAFSKLKQKFMNELHKIPLPPWALIAIAIVAVLLVVTCCFCVCKKCLFKKKNKKKGKEKGGKNAINMKDVKDLGKTMKDQALKDDDAETGLTDGEEKEEPKEEEKLGKLQYSLDYDFQNNQLLVGIIQAAELPALDMGGTSDPYVKVFLLPDKKKKFETKVHRKTLNPVFNEQFTFKVPYSELGGKTLVMAVYDFDRFSKHDIIGEFKVPMNTVDFGHVTEEWRDLQSAEKEEQEKLGDICFSLRYVPTAGKLTVVILEAKNLKKMDVGGLSDPYVKIHLMQNGKRLKKKKTTIKKNTLNPYYNESFSFEVPFEQIQKVQVVVTVLDYDKIGKNDAIGKVFVGYNSTGAELRHWSDMLANPQQPIAQWHTLQVEEEVDAMLAVKK",~50

# From PMC4607316 (Nature, 2015)
